Measured values taken from article doi:10.1101/639948 (bioRxiv, 2019).

B1: Mic19/CHCHD3 (natural protein)
chain: MGGTASTRRVTFEADENENITVVKGIRLSENVIDRMKESSPSGSKSQRYSSVYGASVSDEDLKRRVAEELALEQAKKESEHQRRLKQARDLERERAAANEQLTRAVLRERISSEEERMKAKHLARQLEEKDRVMRKQDAFYKEQLARLEERSSEFYKVTTEEYQKAAEEVEAKFKRYEYHPVCADLQTKILQCYRQNTQQTLSCSALASQYMHCVNHAKQSMLEKGG
B2: Sam50 (natural protein)
chain: MGTVHARSLEPLPSSGTDFGALGEEAEFVEVEPEAKQEILENKDVVVQHVHFDGLGRTKDDIIICEIGEVFKAKNLIEVMRRSHEAREKLLRLGIFRQVDVLIDTCHGEDALPNGLDVTFEVTELRRLTGSYNTMVGNNEGSMVLGLKLPNLLGRAEKVTFQFSYGTKETSYGLSFFKPQPGNFERNFSVNLYKVTGQFPWSSLRETDRGVSAEYSFPLWKTSHTVKWEGVWRELGCLSRTASFAVRKESGHSLKSSLSHAMVIDSRNSSILPRRGALFKVNQELAGYTGGDVSFIKEDFELQLNKPLALDSVFSTSLWGGMLVPIGDKPSSIADRFYLGGPTSVRGFSMHSIGPQSEGDYLGGEAYWAGGLHLYTPLPFRPGQGGFGELFRTHFFLNAGNLCNLNYGEGPKAHIRKLAECIRWSYGAGVVLRLGNIARLELNYCIPMGVQGGDRICDGVQFGAGIRFL

Biological target: native Miro2 (UniProt Q8JZN7 1-620)
Sequence (Q8JZN7 whole entry): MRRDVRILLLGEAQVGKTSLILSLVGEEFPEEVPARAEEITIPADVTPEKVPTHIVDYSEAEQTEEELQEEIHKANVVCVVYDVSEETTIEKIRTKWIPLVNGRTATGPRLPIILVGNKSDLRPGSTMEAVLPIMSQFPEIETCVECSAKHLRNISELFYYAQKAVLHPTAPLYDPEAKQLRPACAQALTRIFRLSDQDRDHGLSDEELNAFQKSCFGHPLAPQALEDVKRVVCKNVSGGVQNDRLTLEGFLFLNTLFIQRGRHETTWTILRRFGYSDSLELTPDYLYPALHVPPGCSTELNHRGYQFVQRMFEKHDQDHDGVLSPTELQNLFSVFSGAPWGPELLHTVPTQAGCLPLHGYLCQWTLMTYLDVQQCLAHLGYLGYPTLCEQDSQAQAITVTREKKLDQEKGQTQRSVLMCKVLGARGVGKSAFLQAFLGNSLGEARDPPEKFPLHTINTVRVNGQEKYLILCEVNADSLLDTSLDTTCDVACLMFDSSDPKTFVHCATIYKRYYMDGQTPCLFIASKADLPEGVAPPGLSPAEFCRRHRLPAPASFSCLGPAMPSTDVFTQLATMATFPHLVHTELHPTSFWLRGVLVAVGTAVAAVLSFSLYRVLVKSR
Experiment: proximity ligation

Binder | fold enrichment of PLA signal over single antibodies [fold]
B1 | 4
B2 | 4
